Source: the Immune Epitope Database (IEDB)
pKd: −log10 of the molar value.

Key:
HLA-B*27:03 = assay: IEDB peptide-MHC binding, purified MHC/competitive/fluorescence; filed as Kd, often an IC50 or EC50 that approximates it; ≥ and ≤ were set here for values at or beyond the usual limits of such assays
HLA-B*46:01 [1] = assay: as above
HLA-A*02:11 = assay: as above
HLA-A*26:01 [2] = assay: as above
HLA-A*03:01 [3] = assay: as above
HLA-A*02:19 = assay: as above
HLA-A*29:02 [4] = assay: as above; settings: source organism: Entamoeba histolytica HM-1:IMSS
HLA-B*57:01 [5] = assay: as above
HLA-B*18:01 [6] = assay: as above
HLA-B*46:01 [7] = assay: IEDB peptide-MHC binding, purified MHC/direct/fluorescence; filed as Kd, often an IC50 or EC50 that approximates it; ≥ and ≤ were set here for values at or beyond the usual limits of such assays
HLA-B*08:02 = assay: as above
HLA-A*01:01 [8] = assay: as above
HLA-B*08:01 = assay: as above
HLA-A*26:01 [9] = assay: as above
HLA-A*11:01 = assay: as above
HLA-B*15:01 = assay: as above
HLA-A*03:01 [10] = assay: as above
HLA-B*40:01 = assay: as above
HLA-B*15:09 = assay: as above
HLA-B*58:01 [11] = assay: as above
HLA-B*07:02 = assay: as above
HLA-B*27:05 = assay: as above
HLA-A*02:01 [12] = assay: as above
HLA-A*69:01 [13] = assay: as above
HLA-B*57:01 [14] = assay: as above
HLA-B*44:02 = assay: as above
HLA-A*31:01 = assay: as above
HLA-B*18:01 [15] = assay: as above
HLA-B*39:01 [16] = assay: IEDB peptide-MHC binding, purified MHC/competitive/fluorescence; filed as Kd, often an IC50 or EC50 that approximates it; ≥ and ≤ were set here for values at or beyond the usual limits of such assays
HLA-A*69:01 [17] = assay: as above; settings: source organism: Human immunodeficiency virus 1
HLA-A*02:03 = assay: as above
HLA-A*02:01 [18] = assay: as above
HLA-C*03:03 = assay: IEDB peptide-MHC binding, purified MHC/direct/fluorescence; filed as Kd, often an IC50 or EC50 that approximates it; ≥ and ≤ were set here for values at or beyond the usual limits of such assays
HLA-C*05:01 = assay: as above
HLA-A*01:01 [19] = assay: IEDB peptide-MHC binding, purified MHC/competitive/fluorescence; filed as Kd, often an IC50 or EC50 that approximates it; ≥ and ≤ were set here for values at or beyond the usual limits of such assays
HLA-B*58:01 [20] = assay: as above
HLA-A*68:02 = assay: IEDB peptide-MHC binding, purified MHC/direct/fluorescence; filed as Kd, often an IC50 or EC50 that approximates it; ≥ and ≤ were set here for values at or beyond the usual limits of such assays; settings: source organism: Camelpox virus M-96
HLA-B*48:01 = assay: as above
HLA-B*15:17 = assay: as above; settings: source organism: Camelpox virus M-96
HLA-B*39:01 [21] = assay: as above
HLA-A*02:12 = assay: IEDB peptide-MHC binding, purified MHC/competitive/fluorescence; filed as Kd, often an IC50 or EC50 that approximates it; ≥ and ≤ were set here for values at or beyond the usual limits of such assays; settings: source organism: Vibrio parahaemolyticus AQ3810
HLA-A*29:02 [22] = assay: IEDB peptide-MHC binding, purified MHC/direct/fluorescence; filed as Kd, often an IC50 or EC50 that approximates it; ≥ and ≤ were set here for values at or beyond the usual limits of such assays; settings: source organism: West Nile virus
[23] = source organism: Entamoeba histolytica HM-1:IMSS
[24] = source organism: Burkholderia mallei
[25] = source organism: Burkholderia mallei ATCC 23344
[26] = source organism: West Nile virus
[27] = source organism: West Nile virus strain PTRoxo
[28] = source organism: Human immunodeficiency virus 1
[29] = source organism: Salmonella enterica subsp. enterica serovar Typhi
[30] = source organism: Camelpox virus M-96
[31] = source organism: Vibrio parahaemolyticus AQ3810
[32] = source organism: Yersinia pestis Nepal516
[33] = source organism: Bacillus thuringiensis str. Al Hakam

## CLSPVVAGL
HLA-B*27:03; [23]
  pKd: ≤ 4.70
HLA-B*46:01 [1]; [23]
  pKd: ≤ 4.70
HLA-A*02:11; [23]
  pKd: ≥ 10.00
HLA-A*26:01 [2]; [23]
  pKd: ≤ 4.70
HLA-A*03:01 [3]; [23]
  pKd: ≤ 4.70
HLA-A*02:19; [23]
  pKd: 9.10
HLA-A*29:02 [4]
  pKd: 6.66
HLA-B*57:01 [5]; [23]
  pKd: ≤ 4.70
HLA-B*18:01 [6]; [23]
  pKd: ≤ 4.70

## EARGKEKLL
HLA-B*46:01 [7]; [24]
  pKd: ≤ 4.70
HLA-B*08:02; [25]
  pKd: ≤ 4.70
HLA-A*01:01 [8]; [24]
  pKd: ≤ 4.70
HLA-B*08:01; [25]
  pKd: 5.23
HLA-A*26:01 [9]; [25]
  pKd: ≤ 4.70
HLA-A*11:01; [24]
  pKd: ≤ 4.70
HLA-B*15:01; [24]
  pKd: ≤ 4.70
HLA-A*03:01 [10]; [24]
  pKd: ≤ 4.70
HLA-B*40:01; [24]
  pKd: ≤ 4.70
HLA-B*15:09; [25]
  pKd: ≤ 4.70
HLA-B*58:01 [11]; [24]
  pKd: ≤ 4.70
HLA-B*07:02; [24]
  pKd: ≤ 4.70
HLA-B*27:05; [24]
  pKd: ≤ 4.70
HLA-A*02:01 [12]; [24]
  pKd: ≤ 4.70

## GHGTVVLEL
HLA-A*69:01 [13]; [26]
  pKd: ≤ 4.70
HLA-B*46:01 [7]; [26]
  pKd: ≤ 4.70
HLA-A*01:01 [8]; [26]
  pKd: ≤ 4.70
HLA-B*15:01; [26]
  pKd: ≤ 4.70
HLA-A*03:01 [10]; [26]
  pKd: ≤ 4.70
HLA-B*40:01; [26]
  pKd: ≤ 4.70
HLA-B*15:09; [27]
  pKd: 5.34
HLA-B*58:01 [11]; [26]
  pKd: ≤ 4.70
HLA-B*07:02; [26]
  pKd: ≤ 4.70
HLA-B*57:01 [14]; [26]
  pKd: ≤ 4.70
HLA-B*44:02; [26]
  pKd: ≤ 4.70
HLA-A*31:01; [26]
  pKd: ≤ 4.70
HLA-B*27:05; [26]
  pKd: ≤ 4.70
HLA-A*02:01 [12]; [26]
  pKd: ≤ 4.70
HLA-B*18:01 [15]; [26]
  pKd: ≤ 4.70
HLA-B*39:01 [16]; source organism: Murray Valley encephalitis virus
  pKd: 8.17

## GLADQLIHI
HLA-A*69:01 [17]
  pKd: ≤ 4.70
HLA-A*02:11; [28]
  pKd: 9.70
HLA-A*02:19; [28]
  pKd: 8.02
HLA-A*02:03; [28]
  pKd: 8.92
HLA-A*02:01 [18]; [28]
  pKd: 7.53

## ILDTGTIQL
HLA-C*03:03; source organism: Homo sapiens
  pKd: 5.90
HLA-C*05:01; source organism: Homo sapiens
  pKd: 7.72

## ITSKEVFTY
HLA-A*01:01 [19]; [29]
  pKd: 7.47
HLA-A*03:01 [3]; [29]
  pKd: 5.64
HLA-B*58:01 [20]; [29]
  pKd: 7.59

## KELENEYYF
HLA-A*69:01 [13]; [30]
  pKd: ≤ 4.70
HLA-A*68:02
  pKd: ≤ 4.70
HLA-B*08:02; source organism: Variola virus
  pKd: ≤ 4.70
HLA-A*01:01 [8]; [30]
  pKd: ≤ 4.70
HLA-B*48:01; [30]
  pKd: ≤ 4.70
HLA-B*08:01; source organism: Variola virus
  pKd: ≤ 4.70
HLA-A*26:01 [9]; source organism: Variola virus
  pKd: ≤ 4.70
HLA-A*11:01; [30]
  pKd: ≤ 4.70
HLA-B*40:01; [30]
  pKd: 7.74
HLA-B*15:09; source organism: Variola virus
  pKd: ≤ 4.70
HLA-B*58:01 [11]; [30]
  pKd: ≤ 4.70
HLA-B*15:17
  pKd: ≤ 4.70
HLA-B*07:02; [30]
  pKd: ≤ 4.70
HLA-B*57:01 [14]; [30]
  pKd: ≤ 4.70
HLA-B*44:02; [30]
  pKd: ≤ 4.70
HLA-B*39:01 [21]; source organism: Variola virus
  pKd: ≤ 4.70
HLA-A*31:01; [30]
  pKd: ≤ 4.70
HLA-B*27:05; [30]
  pKd: ≤ 4.70
HLA-B*18:01 [15]; [30]
  pKd: 7.70
HLA-A*02:01 [18]; source organism: Vaccinia virus WR
  pKd: ≤ 4.70

## SSRGYSAIW
HLA-B*27:03; [31]
  pKd: ≤ 4.70
HLA-B*46:01 [1]; [31]
  pKd: ≤ 4.70
HLA-A*26:01 [2]; [31]
  pKd: ≤ 4.70
HLA-A*03:01 [3]; [31]
  pKd: ≤ 4.70
HLA-A*02:19; [31]
  pKd: ≤ 4.70
HLA-A*02:12
  pKd: ≤ 4.70
HLA-B*57:01 [5]; [31]
  pKd: 7.38
HLA-B*39:01 [16]; [31]
  pKd: ≤ 4.70
HLA-A*02:03; [31]
  pKd: ≤ 4.70
HLA-B*18:01 [6]; [31]
  pKd: ≤ 4.70

## STIVWSSRY
HLA-A*01:01 [19]; [32]
  pKd: 5.85
HLA-A*03:01 [3]; [32]
  pKd: 5.46
HLA-B*58:01 [20]; [32]
  pKd: 6.77

## TEGEGRVIL
HLA-A*69:01 [13]; [26]
  pKd: ≤ 4.70
HLA-B*46:01 [7]; [26]
  pKd: ≤ 4.70
HLA-A*01:01 [8]; [26]
  pKd: ≤ 4.70
HLA-B*48:01; [26]
  pKd: ≤ 4.70
HLA-A*11:01; [26]
  pKd: ≤ 4.70
HLA-B*15:01; [26]
  pKd: ≤ 4.70
HLA-A*03:01 [10]; [26]
  pKd: ≤ 4.70
HLA-B*40:01; [26]
  pKd: 7.34
HLA-B*15:09; [27]
  pKd: ≤ 4.70
HLA-B*58:01 [11]; [26]
  pKd: ≤ 4.70
HLA-B*07:02; [26]
  pKd: ≤ 4.70
HLA-A*29:02 [22]
  pKd: ≤ 4.70
HLA-B*57:01 [14]; [26]
  pKd: ≤ 4.70
HLA-B*44:02; [26]
  pKd: ≤ 4.70
HLA-B*39:01 [21]; [26]
  pKd: ≤ 4.70
HLA-A*31:01; [26]
  pKd: ≤ 4.70
HLA-B*27:05; [26]
  pKd: ≤ 4.70
HLA-A*02:01 [12]; [26]
  pKd: ≤ 4.70
HLA-B*18:01 [15]; [26]
  pKd: 5.99

## YLVDCGAEL
HLA-C*03:03; source organism: Mycobacterium tuberculosis str. Haarlem
  pKd: ≥ 9.00

## YSAWGGYNL
HLA-C*05:01; [33]
  pKd: 5.38
HLA-B*39:01 [16]; [33]
  pKd: 6.39
